T1: RAP74, P35269
T1 chain: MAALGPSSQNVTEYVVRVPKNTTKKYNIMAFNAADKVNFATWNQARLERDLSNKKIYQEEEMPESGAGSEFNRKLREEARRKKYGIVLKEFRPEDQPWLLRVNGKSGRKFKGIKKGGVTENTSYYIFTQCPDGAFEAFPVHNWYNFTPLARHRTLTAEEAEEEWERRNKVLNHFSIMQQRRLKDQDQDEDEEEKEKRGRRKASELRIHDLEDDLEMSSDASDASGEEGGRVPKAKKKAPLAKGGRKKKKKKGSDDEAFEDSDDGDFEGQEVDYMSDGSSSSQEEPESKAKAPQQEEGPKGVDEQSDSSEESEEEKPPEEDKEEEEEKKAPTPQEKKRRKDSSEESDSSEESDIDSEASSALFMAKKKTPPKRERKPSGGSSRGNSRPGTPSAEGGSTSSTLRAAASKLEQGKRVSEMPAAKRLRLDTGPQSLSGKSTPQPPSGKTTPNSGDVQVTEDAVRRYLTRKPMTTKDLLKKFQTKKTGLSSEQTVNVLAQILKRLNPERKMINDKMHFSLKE


How the values were obtained:
[1] = biological target: Ser 2 phosphopeptide (28 aa CTD peptide, 4 heptad repeats)
[2] = biological target: Ser 5 phosphopeptide (28 aa CTD peptide, 4 heptad repeats)
RAP74, P35269 = biological target: T1, RAP74, P35269

Protein	CTD phosphatase assay (mobility shift of GST-CTDo to GST-CTDa) (GST-CTDo)	phosphate released from phosphopeptide (malachite green) [1]	phosphate released from phosphopeptide (malachite green) [2]	CTD phosphatase activity (dephosphorylation of RNAP IIO prepared by TFIIH), with and without 7 pmol RAP74 (RAP74, P35269)
FCP1 (protein) MEVPAAGRVPAEGAPTAAVAEVRCPGPAPLRLLEWRVAAGAAVRIGSVLAVFEAAASAQSSGASQSRVASGGCVRPARPERRLRSERAGVVRELCAQPGQVVAPGAVLVRLEGCSHPVVMKGLCAECGQDLTQLQSKNGKQQVPLSTATVSMVHSVPELMVSSEQAEQLGREDQQRLHRNRKLVLMVDLDQTLIHTTEQHCQQMSNKGIFHFQLGRGEPMLHTRLRPHCKDFLEKIAKLYELHVFTFGSRLYAHTIAGFLDPEKKLFSHRILSRDECIDPFSKTGNLRNLFPCGDSMVCIIDDREDVWKFAPNLITVKKYVYFQGTGDMNAPPGSRESQTRKKVNHSRGTEVSEPSPPVRDPEGVTQAPGVEPSNGLEKPARELNGSEAATPRDSPRPGKPDERDIWPPAQAPTSSQELAGAPEPQGSCAQGGRVAPGQRPAQGATGTDLDFDLSSDSESSSESEGTKSSSSASDGESEGKRGRQKPKAAPEGAGALAQGSSLEPGRPAAPSLPGEAEPGAHAPDKEPELGGQEEGERDGLCGLGNGCADRKEAETESQNSELSGVTAGESLDQSMEEEEEEDTDEDDHLIYLEEILVRVHTDYYAKYDRYLNKEIEEAPDIRKIVPELKSKVLADVAIIFSGLHPTNFPIEKTREHYHATALGAKILTRLVLSPDAPDRATHLIAARAGTEKVLQAQECGHLHVVNPDWLWSCLERWDKVEEQLFPLRDDHTKAQRENSPAAFPDREGVPPTALFHPMPVLPKAQPGPEVRIYDSNTGKLIRTGARGPPAPSSSLPIRQEPSSFRAVPPPQPQMFGEELPDAQDGEQPGPSRRKRQPSMSETMPLYTLCKEDLESMDKEVDDILGEGSDDSDSEKRRPEEQEEEPQPRKPGTRRERTLGAPASSERSAAGGRGPRGHKRKLNEEDAASESSRESSNEDEGSSSEADEMAKALEAELNDLM	FCP1 does not dephosphorylate rCTDo even at concentrations 100 times higher than that required to dephosphorylate RNAP IIO	Mammalian FCP1, within a comparable concentration range, did not act on either phosphopeptide	Mammalian FCP1, within a comparable concentration range, did not act on either phosphopeptide	–
SCP1 261 (protein) MDSSAVITQISKEEARGPLRGKGDQKSAASQKPRSRGILHSLFCCVCRDDGEALPAHSGAPLLVEENGAIPKTPVQYLLPEAKAQDSDKICVVIDLDETLVHSSFKPVNNADFIIPVEIDGVVHQVYVLKRPHVDEFLQRMGELFECVLFTASLAKYADPVADLLDKWGAFRARLFRESCVFHRGNYVKDLSRLGRDLRRVLILDNSPASYVFHPDNAVPVASWFDNMSDTELHDLLPFFEQLSRVDDVYSVLRQPRPGS	–	–	–	RAP74 shifted the dose response curve for SCP1 catalyzed dephosphorylation of RNAP IIO to an approximately 10-fold lower concentration
GST-SCP1 214 (protein) MMGRPCLLTAGRPCLWRRMAPSLRQTPVQYLLPEAKAQDSDKICVVIDLDETLVHSSFKPVNNADFIIPVEIDGVVHQVYVLKRPHVDEFLQRMGELFECVLFTASLAKYADPVADLLDKWGAFRARLFRESCVFHRGNYVKDLSRLGRDLRRVLILDNSPASYVFHPDNAVPVASWFDNMSDTELHDLLPFFEQLSRVDDVYSVLRQPRPGS	SCP1 dephosphorylates rCTDo and RNAP IIO with comparable efficiency	SCP1 preferentially dephosphorylates the Ser 5 phosphopeptide compared to the Ser 2 phosphopeptide	SCP1 preferentially dephosphorylates the Ser 5 phosphopeptide compared to the Ser 2 phosphopeptide	–

Reference: patent US20070172470
